Laboratory results taken from PMC4259888.

Assays:
[1] = biological target: HIV-1 CA hexamers (A14C/E45C/W184A/M185A) (HIV-1); test: SEC; size-exclusion chromatographic profiles of purified individual CA hexamers, pentamers and monomers
[2] = biological target: HIV-1 CA pentamers (A21C/E22C/W184A/M185A) (HIV-1); test: as above

| Substance | stoichiometry N [1] | stoichiometry N [2] |
| --- | --- | --- |
| HIV-1 CA hexamers (A14C/E45C/W184A/M185A) (natural protein) | 6 | – |
| HIV-1 CA pentamers (A21C/E22C/W184A/M185A) (natural protein) | – | 5 |
